According to US20210246166A1 (Bayer, published 2021):
Numbered stars: 1 amine (or outer) side, 2 acyl side, 3 side chain; on linkers, the order of the positions; unused ones are H or OH. Bridge positions count the residues as written; N and C are the ends. Square brackets hold non-standard residues; d marks the D form. Ends that are not written are not given here. X13 = (2S)‑2‑amino‑3‑(1-methylcyclopropyl)propanoic acid, CC1(C[C@H](N[*:1])C(=O)[*:2])CC1; Oic = O=C(O)[C@@H]1C[C@@H]2CCCC[C@@H]2N1; tBuAla = CC(C)(C)C[C@H](N)C(=O)O; Pen = CC(C)(S)[C@H](N)C(=O)O; 3Amb = NCc1cccc(C(=O)O)c1; NMeC = CN[C@@H](CS)C(=O)O; Nva = CCC[C@H](N)C(=O)O; Dap = NC[C@H](N)C(=O)O; Sar = CNCC(=O)O

T1: Recombinant human MASP1 enzyme (fragment corresponding to amino acids 297-699, C-terminal His Tag) (human, UniProt P48740 297-699)
T1 sequence: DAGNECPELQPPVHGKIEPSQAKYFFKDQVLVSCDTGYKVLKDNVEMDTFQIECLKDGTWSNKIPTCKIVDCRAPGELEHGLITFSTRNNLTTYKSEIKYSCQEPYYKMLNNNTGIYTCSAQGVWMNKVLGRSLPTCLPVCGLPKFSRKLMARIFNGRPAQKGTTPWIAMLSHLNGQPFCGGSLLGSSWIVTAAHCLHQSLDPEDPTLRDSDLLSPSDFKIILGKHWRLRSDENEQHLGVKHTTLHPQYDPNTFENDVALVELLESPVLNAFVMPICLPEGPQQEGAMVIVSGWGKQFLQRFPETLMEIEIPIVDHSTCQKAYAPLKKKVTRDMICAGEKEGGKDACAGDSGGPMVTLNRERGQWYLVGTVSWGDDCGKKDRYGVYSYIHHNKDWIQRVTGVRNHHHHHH

B1: (Dap)-IC+SRS-((tBu)A)-PPI-(Pen)+I-NH2 (peptide)
peptide: [Dap]ICSRS[tBuAla]PPI[Pen]I-NH2
modifications: disulfide 3-11; N-terminus assumed
SMILES: CC[C@H](C)[C@H](NC(=O)[C@H]1NC(=O)[C@H]([C@@H](C)CC)NC(=O)[C@@H]2CCCN2C(=O)[C@@H]2CCCN2C(=O)[C@H](CC(C)(C)C)NC(=O)[C@H](CO)NC(=O)[C@H](CCCNC(=N)N)NC(=O)[C@H](CO)NC(=O)[C@@H](NC(=O)[C@@H](NC(=O)[C@@H](N)CN)[C@@H](C)CC)CSSC1(C)C)C(N)=O
B2: AIC+SRS-((tBu)A)-P-(Oic)-I-((N-Me)C)+I-NH2 (peptide)
peptide: AICSRS[tBuAla]P[Oic]I[NMeC]I-NH2
modifications: disulfide 3-11; N-terminus assumed
SMILES: CC[C@H](C)[C@H](NC(=O)[C@@H]1CSSC[C@H](NC(=O)[C@@H](NC(=O)[C@H](C)N)[C@@H](C)CC)C(=O)N[C@@H](CO)C(=O)N[C@@H](CCCNC(=N)N)C(=O)N[C@@H](CO)C(=O)N[C@@H](CC(C)(C)C)C(=O)N2CCC[C@H]2C(=O)N2[C@@H](C[C@@H]3CCCC[C@@H]32)C(=O)N[C@@H]([C@@H](C)CC)C(=O)N1C)C(N)=O
B3: aIC+SRSLP-(Oic)-I-(Pen)+IPQ-NH2 (peptide)
peptide: [dA]ICSRSLP[Oic]I[Pen]IPQ-NH2
modifications: disulfide 3-11; N-terminus assumed
SMILES: CC[C@H](C)[C@H](NC(=O)[C@@H](C)N)C(=O)N[C@H]1CSSC(C)(C)[C@@H](C(=O)N[C@H](C(=O)N2CCC[C@H]2C(=O)N[C@@H](CCC(N)=O)C(N)=O)[C@@H](C)CC)NC(=O)[C@H]([C@@H](C)CC)NC(=O)[C@@H]2C[C@@H]3CCCC[C@@H]3N2C(=O)[C@@H]2CCCN2C(=O)[C@H](CC(C)C)NC(=O)[C@H](CO)NC(=O)[C@H](CCCNC(=N)N)NC(=O)[C@H](CO)NC1=O
B4: ((N-Me)G)-IC+SRSLP-(Oic)-I-(Pen)+IPQ-NH2 (peptide)
peptide: [Sar]ICSRSLP[Oic]I[Pen]IPQ-NH2
modifications: disulfide 3-11; N-terminus assumed
SMILES: CC[C@H](C)[C@H](NC(=O)CNC)C(=O)N[C@H]1CSSC(C)(C)[C@@H](C(=O)N[C@H](C(=O)N2CCC[C@H]2C(=O)N[C@@H](CCC(N)=O)C(N)=O)[C@@H](C)CC)NC(=O)[C@H]([C@@H](C)CC)NC(=O)[C@@H]2C[C@@H]3CCCC[C@@H]3N2C(=O)[C@@H]2CCCN2C(=O)[C@H](CC(C)C)NC(=O)[C@H](CO)NC(=O)[C@H](CCCNC(=N)N)NC(=O)[C@H](CO)NC1=O
B5: ((N-Me)G)-IC+SRSLP-(Oic)-I-(Pen)+IPQ-OH (peptide)
peptide: [Sar]ICSRSLP[Oic]I[Pen]IPQ-OH
modifications: disulfide 3-11; N-terminus assumed
SMILES: CC[C@H](C)[C@H](NC(=O)CNC)C(=O)N[C@H]1CSSC(C)(C)[C@@H](C(=O)N[C@H](C(=O)N2CCC[C@H]2C(=O)N[C@@H](CCC(N)=O)C(=O)O)[C@@H](C)CC)NC(=O)[C@H]([C@@H](C)CC)NC(=O)[C@@H]2C[C@@H]3CCCC[C@@H]3N2C(=O)[C@@H]2CCCN2C(=O)[C@H](CC(C)C)NC(=O)[C@H](CO)NC(=O)[C@H](CCCNC(=N)N)NC(=O)[C@H](CO)NC1=O
B6: A-(Nva)-C+SRS-((tBu)A)-PPI-(Pen)+IPD-NH2 (peptide)
peptide: A[Nva]CSRS[tBuAla]PPI[Pen]IPD-NH2
modifications: disulfide 3-11; N-terminus assumed
SMILES: CCC[C@H](NC(=O)[C@H](C)N)C(=O)N[C@H]1CSSC(C)(C)[C@@H](C(=O)N[C@H](C(=O)N2CCC[C@H]2C(=O)N[C@@H](CC(=O)O)C(N)=O)[C@@H](C)CC)NC(=O)[C@H]([C@@H](C)CC)NC(=O)[C@@H]2CCCN2C(=O)[C@@H]2CCCN2C(=O)[C@H](CC(C)(C)C)NC(=O)[C@H](CO)NC(=O)[C@H](CCCNC(=N)N)NC(=O)[C@H](CO)NC1=O
B7: ((N-Me)G)-IC+SRS-((2S)-2-amino-3-(1-methylcyclopropyl)propanoic acid)-PPI-(Pen)+IP-NH2 (peptide)
peptide: [Sar]ICSRS[X13]PPI[Pen]IP-NH2
modifications: disulfide 3-11; N-terminus assumed
SMILES: CC[C@H](C)[C@H](NC(=O)CNC)C(=O)N[C@H]1CSSC(C)(C)[C@@H](C(=O)N[C@H](C(=O)N2CCC[C@H]2C(N)=O)[C@@H](C)CC)NC(=O)[C@H]([C@@H](C)CC)NC(=O)[C@@H]2CCCN2C(=O)[C@@H]2CCCN2C(=O)[C@H](CC2(C)CC2)NC(=O)[C@H](CO)NC(=O)[C@H](CCCNC(=N)N)NC(=O)[C@H](CO)NC1=O
B8: aIC+SRSLP-(Oic)-I-(Pen)+IPE-OH (peptide)
peptide: [dA]ICSRSLP[Oic]I[Pen]IPE-OH
modifications: disulfide 3-11; N-terminus assumed
SMILES: CC[C@H](C)[C@H](NC(=O)[C@@H](C)N)C(=O)N[C@H]1CSSC(C)(C)[C@@H](C(=O)N[C@H](C(=O)N2CCC[C@H]2C(=O)N[C@@H](CCC(=O)O)C(=O)O)[C@@H](C)CC)NC(=O)[C@H]([C@@H](C)CC)NC(=O)[C@@H]2C[C@@H]3CCCC[C@@H]3N2C(=O)[C@@H]2CCCN2C(=O)[C@H](CC(C)C)NC(=O)[C@H](CO)NC(=O)[C@H](CCCNC(=N)N)NC(=O)[C@H](CO)NC1=O
B9: (3-(Aminomethyl)benzoic acid)-IC+SRS-((tBu)A)-PPI-(Pen)+IP-NH2 (peptide)
peptide: [3Amb]ICSRS[tBuAla]PPI[Pen]IP-NH2
modifications: disulfide 3-11; N-terminus assumed
SMILES: CC[C@H](C)[C@H](NC(=O)c1cccc(CN)c1)C(=O)N[C@H]1CSSC(C)(C)[C@@H](C(=O)N[C@H](C(=O)N2CCC[C@H]2C(N)=O)[C@@H](C)CC)NC(=O)[C@H]([C@@H](C)CC)NC(=O)[C@@H]2CCCN2C(=O)[C@@H]2CCCN2C(=O)[C@H](CC(C)(C)C)NC(=O)[C@H](CO)NC(=O)[C@H](CCCNC(=N)N)NC(=O)[C@H](CO)NC1=O
B10: ((N-Me)G)-IC+SRSLP-(Oic)-I-(Pen)+IPE-OH (peptide)
peptide: [Sar]ICSRSLP[Oic]I[Pen]IPE-OH
modifications: disulfide 3-11; N-terminus assumed
SMILES: CC[C@H](C)[C@H](NC(=O)CNC)C(=O)N[C@H]1CSSC(C)(C)[C@@H](C(=O)N[C@H](C(=O)N2CCC[C@H]2C(=O)N[C@@H](CCC(=O)O)C(=O)O)[C@@H](C)CC)NC(=O)[C@H]([C@@H](C)CC)NC(=O)[C@@H]2C[C@@H]3CCCC[C@@H]3N2C(=O)[C@@H]2CCCN2C(=O)[C@H](CC(C)C)NC(=O)[C@H](CO)NC(=O)[C@H](CCCNC(=N)N)NC(=O)[C@H](CO)NC1=O

molecular target: Recombinant human MASP2 enzyme (fragment corresponding to amino acids 297-686, C-terminal His Tag) (human, UniProt O00187 297-686); experiment: cell-based or functional assay
Sequence (O00187 other isoform, or with tags, fused parts or gaps limits assumed): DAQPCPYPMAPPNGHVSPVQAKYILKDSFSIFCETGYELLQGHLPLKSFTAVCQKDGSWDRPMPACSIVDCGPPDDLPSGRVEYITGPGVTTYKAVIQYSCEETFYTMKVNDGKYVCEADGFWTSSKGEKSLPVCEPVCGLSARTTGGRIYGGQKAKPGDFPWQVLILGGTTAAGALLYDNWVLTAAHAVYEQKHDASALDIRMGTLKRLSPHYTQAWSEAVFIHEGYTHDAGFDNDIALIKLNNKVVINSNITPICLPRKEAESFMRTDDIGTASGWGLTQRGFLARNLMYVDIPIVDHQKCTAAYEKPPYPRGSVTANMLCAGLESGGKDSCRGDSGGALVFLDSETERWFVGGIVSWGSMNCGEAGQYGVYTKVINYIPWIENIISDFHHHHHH

**Q.** B1 was tested. Which “human MASP2 IC50” value did it give?
**A.** 81 nM

**Q.** How did the “human MASP2 IC50” value turn out when B2 was run?
**A.** 250 nM

**Q.** B3 was tested. Which “human MASP2 IC50” value did it give?
**A.** 130 nM

**Q.** For B4, which “human MASP2 IC50” value is on record?
**A.** 190 nM

**Q.** B5 was tested. Which “human MASP2 IC50” value did it give?
**A.** 170 nM

**Q.** For B6, which “human MASP2 IC50” value is on record?
**A.** 19 nM

**Q.** Which “human MASP2 IC50” value does the source give for B7 here?
**A.** 17 nM

**Q.** Which “human MASP2 IC50” value does the source give for B8 here?
**A.** 100 nM

**Q.** B9 was tested. Which “human MASP2 IC50” value did it give?
**A.** 16 nM

**Q.** Which “human MASP2 IC50” value does the source give for B10 here?
**A.** 180 nM

molecular target: T1, Recombinant human MASP1 enzyme …; experiment: cell-based or functional assay

**Q.** B1 was tested. Which “human MASP1 IC50” value did it give?
**A.** 5.1 nM

**Q.** With B2 as the binder, how does the “human MASP1 IC50” value read?
**A.** 5.2 nM

**Q.** B3 was tested. Which “human MASP1 IC50” value did it give?
**A.** 5.3 nM

**Q.** With B4 as the binder, how does the “human MASP1 IC50” value read?
**A.** 5.2 nM

**Q.** B5 was tested. Which “human MASP1 IC50” value did it give?
**A.** 5.4 nM

**Q.** How did the “human MASP1 IC50” value turn out when B6 was run?
**A.** 5.2 nM

**Q.** For B7, which “human MASP1 IC50” value is on record?
**A.** 5.1 nM

**Q.** For B8, which “human MASP1 IC50” value is on record?
**A.** 5.3 nM

**Q.** For B9, which “human MASP1 IC50” value is on record?
**A.** 5.4 nM

**Q.** With B10 as the binder, how does the “human MASP1 IC50” value read?
**A.** 5.1 nM
